According to paper PMC9061725, “GGDEF domain as spatial on-switch for a phosphodiesterase by interaction with landmark protein HubP” (NPJ Biofilms and Microbiomes, 2022):
Substitutions are numbered along the chain they refer to. Names may count otherwise.

B1: MBP-GGDEF_(SoPdeB), GGDEF domain of S. oneidensis PdeB, wild type (domain or fragment, UniProt Q8EJM6 454-587, looked up)
chain: RSLAVCYLDLEQFKLINDSCGHTAGDRMLAMVARAIQSCLGPQELLARIGGDEFGLVICDRTALAVAQLLKQIIAQVSLQVLHDKNCNYKVGLSIGVAFGRAPYINAQELLKDADIACIAAKAKGTNQIHIYDD
notes: GGDEF (diguanylate cyclase) domain of the phosphodiesterase PdeB of Shewanella oneidensis; construct limits may stand there; The MBP tag is named for SEC, iSCAMS and pull-down; also called SoGGDEF; SoGGDEF_(PdeB); source: E. coli BL21(DE3), pET24c, purified (His Trap, SEC)
B2: SoGGDEF_(PdeB) K577S (domain or fragment, S. oneidensis, UniProt Q8EJM6 454-587, looked up)
chain: B1 chain with K124S
notes: GGDEF domain of PdeB of Shewanella oneidensis with K577S; Variant of m1; the methods of the pull-down call the GGDEF variants MBP-tagged; source: E. coli BL21(DE3), pET24c, purified (His Trap, SEC)
B3: SoGGDEF_(PdeB) K575S (domain or fragment, S. oneidensis, UniProt Q8EJM6 454-587, looked up)
chain: B1 chain with K122S
notes: GGDEF domain of PdeB of Shewanella oneidensis with K575S; Variant of m1; the methods of the pull-down call the GGDEF variants MBP-tagged; source: E. coli BL21(DE3), pET24c, purified (His Trap, SEC)
B4: FimV domain of S. oneidensis HubP (domain or fragment)
chain: FVPEHDLTHFQNEHGYIDIEKLLNDAEQDSVETDLYPEMDVEMSDVGALIGDAAMIDVDDEENSVNAKLDLARAYIEIDDSDSAKALLREVQIDGNDRQQEEAARLLKEMS
modifications: biotinylated with EZ-Link NHS-PEG4-biotin (for the BLI assay only)

Experiments:
[1] = biological target: T1, MshE (Shewanella putrefaciens, UniProt A0ABX8XDM4); experiment: isothermal titration calorimetry; conditions: 25 °C; one set of binding sites; value only in figure; read-out: dissociation constant
T1 construct: gene tadA; full-length, His-tag purified from E. coli BL21(DE3); strain inferred from locus prefix Sputcn32
T1 sequence (A0ABX8XDM4 1-586): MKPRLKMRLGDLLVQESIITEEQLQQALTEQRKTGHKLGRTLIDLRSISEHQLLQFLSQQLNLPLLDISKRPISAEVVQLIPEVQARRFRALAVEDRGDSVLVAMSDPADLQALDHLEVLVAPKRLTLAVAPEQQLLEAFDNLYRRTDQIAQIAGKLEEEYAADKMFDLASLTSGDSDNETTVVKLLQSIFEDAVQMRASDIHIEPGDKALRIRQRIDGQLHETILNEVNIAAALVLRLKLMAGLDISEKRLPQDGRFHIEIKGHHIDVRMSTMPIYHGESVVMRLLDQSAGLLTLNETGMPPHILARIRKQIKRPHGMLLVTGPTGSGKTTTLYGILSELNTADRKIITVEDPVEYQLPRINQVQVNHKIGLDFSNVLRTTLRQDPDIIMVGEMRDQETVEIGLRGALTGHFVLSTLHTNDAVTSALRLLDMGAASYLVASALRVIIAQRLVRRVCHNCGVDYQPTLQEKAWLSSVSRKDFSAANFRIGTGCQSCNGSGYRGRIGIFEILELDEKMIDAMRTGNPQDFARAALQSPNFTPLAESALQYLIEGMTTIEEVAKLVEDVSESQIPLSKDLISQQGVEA
Source text: isothermal titration calorimetry on MshE | both MshE and MshE-N bind c-di-GMP with high affinity

[2] = biological target: T2, MshE-N (Shewanella putrefaciens, UniProt A0ABX8XDM4); experiment: isothermal titration calorimetry; conditions: 25 °C; one set of binding sites; value only in figure; read-out: dissociation constant
T2 construct: gene tadA; N-terminal domain aa 2-145, His-tag purified from E. coli BL21(DE3); strain inferred from locus prefix Sputcn32
Source text: isothermal titration calorimetry on MshE-N | both MshE and MshE-N bind c-di-GMP with high affinity

[3] = biological target: FimV domain of S. putrefaciens HubP (S. putrefaciens)
[4] = biological target: T3, FimV domain of S. oneidensis HubP (S. oneidensis, biotinylated with EZ-Link NHS-PEG4-biotin (for the BLI assay only)); experiment: interferometric scattering mass spectrometry (iSCAMS, mass photometry); MBP-GGDEF_(SoPdeB)/FimV_(HubP) complex, samples prepared at 1 µM, low-salt HEPES buffer (20 mM HEPES, 50 mM NaCl, 50 mM KCl, 5 mM MgCl2, pH 7.5), room temperature; conditions: both partners purified
T3 chain: B4 chain

[5] = biological target: T3, FimV domain of S. oneidensis HubP; experiment: BLI; biotinylated SoFimV held on streptavidin biosensors (BLITZ), SoGGDEF variants as analyte; medium salt HEPES buffer pH 7.5 for association only, high-salt Tris buffer pH 8 for association-dissociation; conditions: both partners purified
[6] = biological target: T4, SoGGDEF_(PdeB) E497S (S. oneidensis, UniProt Q8EJM6 454-587, E497S); experiment: BLI
T4 sequence: B1 chain with E44S

[7] = biological target: T5, SoGGDEF_(PdeB) Q525S (S. oneidensis, UniProt Q8EJM6 454-587, Q525S); experiment: BLI
T5 sequence: B1 chain with Q72S

[8] = biological target: T6, SoGGDEF_(PdeB) G494A (S. oneidensis, UniProt Q8EJM6 454-587, G494A); experiment: BLI
T6 sequence: B1 chain with G41A

[9] = biological target: T7, SoGGDEF_(PdeB) K577S (S. oneidensis, UniProt Q8EJM6 454-587, K577S); experiment: BLI
T7 sequence: B1 chain with K124S

[10] = biological target: T8, SoGGDEF_(PdeB) K575S (S. oneidensis, UniProt Q8EJM6 454-587, K575S); experiment: BLI
T8 sequence: B1 chain with K122S

[11] = biological target: B1; experiment: BLI; biotinylated SoFimV held on streptavidin biosensors (BLITZ), SoGGDEF variants as analyte; medium salt HEPES buffer pH 7.5 for association only, high-salt Tris buffer pH 8 for association-dissociation; conditions: both partners purified

Nc1nc2c(ncn2[C@@H]2O[C@@H]3CO[P@](=O)(O)O[C@H]4[C@@H](O)[C@H](n5cnc6c(=O)[nH]c(N)nc65)O[C@@H]4CO[P@](=O)(O)O[C@H]3[C@H]2O)c(=O)[nH]1 [c-di-GMP]
Kd [1]: 9 µM | Kd [2]: 4 µM

S. putrefaciens PdeB-mVenus K527E/Q528S (natural protein)
single-molecule tracking of PdeB-mVenus K527E/Q528S in S. putrefaciens cells: share of static molecules [3]: 61%

MBP-GGDEF_(PdeB), GGDEF domain of S. putrefaciens PdeB (domain or fragment)
single-molecule tracking of PdeB-mVenus in S. putrefaciens cells: share of molecules statically confined to the cell pole [3]: 84%

B1
stoichiometry N [4]: ~1 GGDEF per FimV (2:2)

B2
fold increase of KD against the wild type [5]: 10 fold

B3
fold increase of KD against the wild type [5]: 100 fold

B4
Kd [6]: 299 nM | Kd [7]: 592 nM | Kd [8]: 835 nM | Kd [9]: 2720 nM | Kd [10]: 22 µM | Kd [11]: ~200 nM
